experiment: soluble on expression in E. coli; label from the status in PepcDB or PDB records

Soluble on expression in E. coli, not soluble:
MSLRIQDGTMRYTYKGVPTYKNPFDLALYQMLLWQQKPRTLIEIGSKWGGSALWFADMMCSFGVDCVIHSIDITPPSISVPGVTFHRGDGRDLAATLPADLMESLPRPIFVIEDADHHCETTLAVLRFFDRWLVAGEYIAVEDGIVDDLYGPEFVARLMGGPRRAVELFLRDRGQNYEIDTGLCDHFGTNVTWNVNGYLRRVREGHHHHHH
MKAASYGVPFQSHFGLISTIRGNDGLPRVVVFFQSHFGLISTVKIVEVLEKDEALSIPFWSDFNCHLQMDQRIRLAFFQSHFGLISTGTLQTSGTNANFLSIPFWSDFNLELLKRIKKTKMLFQSHFGLISTRNMVWGRSELQRAIFQSHFGLISTQSSQLTMPVKMQTFNPILV
MGSDKIHHHHHHMNQFKMSLFLPPISPVKDSATGRTVQPPTLTPYKEITLQEVYKLITSSERLKTLTETVRRAAENGDEKAYRMLKQQTLPYVTPCGVFSYRKSDSLTGPSGLIVVDIDHLDSRGEAEKLKRQLFDDRLLRPVLAFTSPGGRGVKAFIPYDLARIPDTRQNTSENIHWAMNYVQAIYDSHPDGEDKKTSRSGKGVDRSGKDLVRACFLSYDEEALIRREI
MCSSPTTLFLLFALVSTSYALLGVGRTQSVAVSGRVICNGQPASGVKLKLYEKESTFDVLLEEATSDANGQFRLSGSKTEISTIDPKLNIYHKCNYNGLCYKKIGITIPDNYVSSGKTPSKTYDIGTLNLANQYTGQTTDCIN
MVNFVAKDIYTKDSIQRGGQDVIIEKHEIQIDQITSGKVNIFTFYRNRKQIDDHFLRLQEPSLTANYFFHFHFDAESLHLLQKEFPSVYPYDGSETIHDWTEKMKAELQHQIQTGKWNKRVRIGNRILDVVFTWCDEDIVE
MGSDKIHHHHHHMPRLIVLNDNTPSRGLINDWGWSILIEGRERFLFDADTNPLVLAHNSKVLNVNLRNLDFAVLSHWHYDHYGGFEYIAELNPGIKFYAPPQGLALAMRWGFQPIAINFGGKIEEEVYTSGVIDGIEQAIGLETSSGLVVIVGCSHPGVDRMVEEVLKVSGYEKAYLVIGGFHSPPIHRLRNLARLSELIAPAHCSGDVAKAFIKRNYKEKYVDVKTGTILEI
MDRLRFDHRVITENGNKQPLVMVINLSSISMAMMSYDFNSKPLLIFWETTKACGLKCEHCRASAILDALPGEMTFDQSINFLSHIKEFGKPYPIVILTGGDMLRKHRIWDIMDYLRSQEIPFSVSPAVTDLLTHEAILKFKEFGVSSVSISLDGMREVHEKVRGVAGVYDDTVKAIEDLISTGISMQINTVVMRSTVHDLPHVLKLIIDKGVKVWEVFFLIKTGRGIDREDLSPEEYENVNKFLLFATGYGIRIRTVESPIYRRITMQYGKNGLIKGGRLFDELREETVSLIGNPSKEYASSVIPTRDGFGIIFVGHDGEVYPSGFLPYSVGNVKDRSIVDIYRNSDLLNSIRNPDNLHGKCGLCEYRKVCGGSRARAFAYTGDPFGTDPSCIYEPSAVPE
MSKEDNNAVVGHQPATKVGGRRIADHGNQRAQNSTNSSDAVREAMDFDLPAKMEKAYPTAAVKQVHEKPTPAIQPAHYNRATGNGQVRNIPQKQNH
MKKTDTLPATLSALIQEYSIAEGIQMAEQQVRENPAKALCRHSLFQLLCVAGDWSRALHQLQLCARMEANYTQEARLYRELVRCEMFRHTVFQGEQRPGFLLPQPVWVESLLAALACHDDTGEVDKHRNTALEAITDTGGQWNGGAFDWASDSDSRLGPVLELVTGGVYIWLPFSQIRSLESPQPTRLTDLLWKPVNITLVNGDTHGAWLFTRYSGSESASDALRLCRETAWQDGPGETTVRALGQKVWLTSHGDISLLDMAHCTFHAQENDGA
MVCLESDTCQSSQLLNTSFKRGFFSNLYPMIKRTAVERCPLFSVETGFYLKAPGILFVIERKKKQMNHETIQKLQFTTILKEVQTRAIGEYSKERLAKMVPATRLETVQSRLTETTEARLIIDSGQHVPFMGLSQITRLLQQVKKGLILTPNELIEVADFLRSSQRIQKFFEKNQYQTPRLFSYSQHLADFRAIEEQIYTKIHNQKVATDASRQLRKIRRQINECQQEIETKVTKFLRNKNNQLYIQENMMVKKGEHYTVPIKASYKNKVSGTIIEQSNKGQTVFIEPVAISKLNEQLTLLKAEETAEEYQILAELTGLINEQERLVDQAVDTMTTLDIIFARGKYSREIGGITPKVNKEERLRIVQGKHPLLLEHAVPLTFSLGAEYRGLVITGANAGGKTVVLKTVGLLTVMTQFGLQIPAQAGTEIPVLDEIFVDIGDQQNLENALSTFSGHMKNIAEMLRNVKRHTLVLLDEIGSGTEPNEGAGLAIAIMETMYQKGALVVATTHYGEIKRFAQEHDDFVPAAMAFDRETLTPKYQLKIGEVGDSQALWIARKMKMEPQLIEKAAHYIQRKEYPTNRSLFKPLKAKETTFATFVEETHRYQKGDRVLLTETQQIGLVFTDEGEQEIQVFVNDKIENVPRRRLKLQAKAQDLYPQDYDLESLFTDFHERKKLKDIERGSKKAQKQLRKEAEKRAARRDK
MNDNAFTFQTLHPETIMDALFEQGIMVDSGLTPLNSYENRVYQFQDEDRRRFVVKFYRPERWSVDQIREEHQFALELVKDEVPVAAPLAFNGQTLLAHQGYHYAIFPSVGGRQFEADNIDQMEAVGRYLGRLHQTGRKRPFTFRPDIGLAEYLFEPRQVFEDAALIPSGQKAAFLKATDTLLSAVTECWRTDFATLRLHGDCHAGNILWRDGPLFVDLDDARNGPAIQDLWMLLNGDKAEQRMQLETIIEAYEEVSEFDTAEIGLIEPLRAMRLVYYLAWLIRRWGDPAFPKNFPWLTGEDYWQRQTTTFIEQTKILHEPPLQLTPMYLEHHHHHH
MGCVSSTSRSTGYYSGYESHEEPRAASRPTNSDDRGYETDSEPSSGNLIPNARSVYSESVLWHGTSMQSKIDLRSKGFDAGRKTGGATAGGNANMFMNLSREAQSETRRHHYLSSSQKEAKDFAMFADTSNPTLVRTIGVRNNLSLITDPRTGGTALMTDQSIPRKFVLGSKSSAPGENAKVFRDEMRAAGHNVSTKQAGELLREVQSDS
MGSDKIHHHHHHMKTEITLLKGETVMVEPKEFLKAGQAFHGHKCPAMPMGLRVGAAAMNKLGVERSKDGQLLDLVELGDGHCATCFADGIQMITGCTFGKGNIKKLHYGKWGVTLIDTQTGRAVRVTPKAEAMLANKKSEFFTEYRMKHIPASKVPAEVVEPLVEKVMNAPDDMLLNIGDVFDYEVPPKVESFSGFVCDICGEMVVEGYGRPLDDKKVCQPCYEKAQREH
MGSDKIHHHHHHAPTSIPDSALRTAAQLREQALADSTGFAVVESLTTEVGPRIAGGEADPRAVAWAKAKFKSLGFDKVWTEPVTFPKWERRSEQAAVIGAHAQPLHITALGGSPGGTVEGEIVRFENLAALQAAPAGSLAGKIAFVDYQMVKARDGKDYGNGGAVRSKGPSEAIRKGAIGFVMRSAGTDSHRVPHTGITRFDEGLTPVPAAALSVPDANQLARLAALGSTRVRLALDCGWDGTATSYNVIGEITGRSKPKEVVVIGGHLDSWDLGTGAIDDGAGVAITMAAGHLIGQLKQAPKRTIRVVAFANEEQGLYGGKAYAAAHGKDAKDMALHQIGAESDFGAGRIYAFNTGSAAPEQSRAAT

Soluble on expression in E. coli, soluble:
MSLTKLKKVMISVIAATLLLLAGCGSSAVVKTDAGSVTQDELYEAMKTTYGNEVVQQLTFKKILEDKYTVTEKEVNAEYKKYEEQYGDSFESTLSSNNLTKTSFKENLEYNLLVQKATEANMNVSESKLKTYYKTWEPDITVRHILVDDEATAKEIQTKLKNGEKFTDLAKEYSTDTATSTNGGLLDPFGPGEMDETFEKAAYALENKDDVSGIVKSTYGYHLIQLVKKTEKGTYAKEKANVKAAYIESQLTTENMTAALKKELKAANIDIKDSDLKDAFADYTEGHHHHHH
SNKLMELANLQPKRPKTIKQRHVRKKRKIKDMLNTPLCPSHSSLHPVLLPSDVFDQPQPVGNKRIEFHISTDMPAAFKKDLEKEQNCEEKNHDLPATEVDASNIGFGKIFPKPNLDITEEIKEDSDEMPSECISRRELEKGRISREEMETLSVFRSYEPGEPNCRIYVKNLAKHVQEKDLKYIFGRYVDFSSETQRIMFDIRLMKEGRMKGQAFIGLPNEKAAAKALKEANGYVLFGKPMVVQFARSARPKQDPKEGKRKC
SMLSRAKPAVGGESPHTDKRKKKGRKIPKLEDLLSQRDFTGAITLLEFKRHVGEQEDDTNLWIGYCAFHLGDYKRALEEYENATKEENCNPEVWVNLACTYFFLGMYKQAEAAGFKAPKSRLQNRLLFHLAHKFNDEKKLMNFHQNLQDIKEDQLSLASNSEIHLPLPPECWD
SEDSGKTFSSEEEEANYWKDLAMTYKQRAENTQEELREFQEGSREYEAELETQLQQIETRNRDLLSENNRLRMELETIKEKFEVQHSEGYRQISALEDDLAQTKAIKDQLQKYIRELEQANDDLERAKRATIMSLEDFEQRLNQAIERNAFLESELDEKENLLESVQRLKDEARDLRQELAVQQKQEKPRTPMPSSVEAERTDTAVQATGSVPSTPIAHRGPSSSLNTPGSFRRGLDDSTGGTPLTPAARISALNIVGDLLRKVGALESKLASCRNLVYDQSPNRTGGPASGRSSKNRDGGERRPSSTSVPLGDKGLDTSCRWLSKSTTRSSSSC
SMTLTLNRQLLTSRQILVAFSGGLDSTVLLHQLVQWRTENPGVALRAIHVHHGLSANADAWVTHCENVCQQWQVPLVVERVQLAQEGLGIEAQARQARYQAFARTLLPGEVLVTAQHLDDQCETFLLALKRGSGPAGLSAMAEVSEFAGTRLIRPLLARTRGELVQWARQYDLRWIEDESNQDDSYDRNFLRLRVVPLLQQRWPHFAEATARSAALCAEQESLLDELLADDLAHCQSPQGTLQIVPMLAMSDARRAAIIRRWLAGQNAPMPSRDALVRIWQEVALAREDASPCLRLGAFEIRRYQSQLWWIKSVTGQSENIVPWQTWLQPLELPAGLGSVQLNAGGDIRPPRADEAVSVRFKAPGLLHIVGRNGGRKLKKIWQELGVPPWLRDTTPLLFYGETLIAAAGVFVTQEGVAEGENGVSFVWQKTLS
GMQKTAFIWDLDGTLLDSYEAILSGIEETFAQFSIPYDKEKVREFIFKYSVQDLLVRVAEDRNLDVEVLNQVRAQSLAEKNAQVVLMPGAREVLAWADESGIQQFIYTHKGNNAFTILKDLGVESYFTEILTSQSGFVRKPSPEAATYLLDKYQLNSDNTYYIGDRTLDVEFAQNSGIQSINFLESTYEGNHRIQALADISRIFETK
MKKYIITAFAFITLLTGSVTFTACEDIDDIKELNLDRLLSPTNLTARVRDKVNIELTWDEMDRAQSYVIEVFKEDPDFTGTAISTLESEKATYTVTGLEGETSYSIRVKSVAEGITDSKWVSATRSTDAEQILLEVAEEDLTASEVTLRWPAGQVATEIIITPNDVAAHRVTSDEIAAGAATIKNLKSETTYTATLKNGDKTRGTMVFTTLINLDGALPAYPGDNLATIIATAEANATIVLLPKDDNNSFIYTDESGTAKTLEIELTKDVTIKGLYAENRPTTNIKFVLSGCNNFKIENLNLTASDGGTIITVLDSKGGNITVTNCDVTGFGSLLVENDNTQTGTINTFTVDNCIFHDMASGKRFVDYQKKKSFIAEFTLKNSTFYNCCSGSDFIRFDRHSTKGNIINISNCTLYGIEATSKGLFYVRSNSVGNKDFTANITKCIFANMSNKVFFSQDTKTDNLTFNSNYYFEAPSLLSIPEGGAGKVVDATGVTLDPGFTDAANGNFKVSNQTIIDNEIGDPRWRK
MHHHHHHMKNVIFEDEEKSKMLARLLKSSHPEDLRAANKLIKEMVQEDQKRMEKISKRVNAIEEVNNNVKLLTEMVMSHSQGGAAAGSSEDLMKELYQRCERMRPTLFRLASDTEDNDEALAEILQANDNLTQVINLYKQLVRGEEVNGDATAGSIPG

From the DeepSol protein solubility set
